Reference: article PMC4737396 (British Journal of Pharmacology, 2015)

Assays:
perfused rat pancreas = conditions: 100 nM (Pro3)GIP, 1 nM GIP, 10 mM arginine, 7 mM glucose, radioimmunoassay, N=6-9
[1] = system: perfused pancreata from GIPR KO mice; conditions: 100 nM mouse (Pro3)GIP, 1 nM mouse GIP, 10 mM arginine, 7 mM glucose, N=3
GIP receptor = conditions: read-out: affinity (IC50); ref Deacon et al., 2006; cited from earlier work
pigs = conditions: ref Deacon et al., 2006; cited from earlier work
[2] = molecular target: Human GIP receptor (human) (UniProt P48546)
[3] = molecular target: Mouse GIP receptor (mouse) (UniProt Q0P543)
[4] = molecular target: Human GIP receptor (human) (UniProt P48546); assay: radioligand binding
[5] = molecular target: Mouse GIP receptor (mouse) (UniProt Q0P543); assay: radioligand binding
Rat GIP receptor (rat) [6] = molecular target: Rat GIP receptor (rat) (UniProt P43219)
Rat GIP receptor (rat) [7] = molecular target: Rat GIP receptor (rat) (UniProt P43219); assay: radioligand binding
Rat GIP receptor (rat) [8] = molecular target: Rat GIP receptor (rat) (UniProt P43219); remark: listed apart in the source
Human GIP receptor [9] = molecular target: T1, Human GIP receptor (human, UniProt P48546 22-466); assay: radioligand binding
T1 sequence: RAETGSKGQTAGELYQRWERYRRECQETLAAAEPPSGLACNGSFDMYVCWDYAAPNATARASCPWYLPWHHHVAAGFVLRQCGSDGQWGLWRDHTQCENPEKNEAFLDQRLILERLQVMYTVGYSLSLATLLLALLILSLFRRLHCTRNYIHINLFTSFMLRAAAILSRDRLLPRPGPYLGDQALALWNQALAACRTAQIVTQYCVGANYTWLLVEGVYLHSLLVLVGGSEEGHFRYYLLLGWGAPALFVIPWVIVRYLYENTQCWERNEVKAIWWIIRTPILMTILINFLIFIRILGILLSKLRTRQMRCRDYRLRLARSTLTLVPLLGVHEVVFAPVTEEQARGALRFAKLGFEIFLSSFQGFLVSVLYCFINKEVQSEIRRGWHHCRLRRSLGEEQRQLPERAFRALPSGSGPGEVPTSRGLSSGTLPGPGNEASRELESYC

Rat GIP receptor [10] = molecular target: T2, Rat GIP receptor (rat, UniProt P43219 19-455); assay: radioligand binding
T2 sequence: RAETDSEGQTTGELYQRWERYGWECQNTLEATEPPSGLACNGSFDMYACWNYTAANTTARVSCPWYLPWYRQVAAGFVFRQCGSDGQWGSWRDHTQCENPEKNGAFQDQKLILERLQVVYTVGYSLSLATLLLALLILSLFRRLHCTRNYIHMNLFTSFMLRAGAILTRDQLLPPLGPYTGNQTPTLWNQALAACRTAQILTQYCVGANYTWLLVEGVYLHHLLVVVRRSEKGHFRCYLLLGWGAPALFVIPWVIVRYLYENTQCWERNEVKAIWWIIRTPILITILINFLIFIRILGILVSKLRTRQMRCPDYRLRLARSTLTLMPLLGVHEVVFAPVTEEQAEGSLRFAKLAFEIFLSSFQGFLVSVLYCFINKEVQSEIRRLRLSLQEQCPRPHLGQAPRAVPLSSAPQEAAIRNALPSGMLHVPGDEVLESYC

Human GIP receptor [11] = molecular target: T1, Human GIP receptor; assay: cell-based or functional assay
Rat GIP receptor [12] = molecular target: T2, Rat GIP receptor; assay: cell-based or functional assay
Mouse GIP receptor [13] = molecular target: T3, Mouse GIP receptor (mouse, UniProt Q0P543 19-460); assay: cell-based or functional assay
T3 sequence: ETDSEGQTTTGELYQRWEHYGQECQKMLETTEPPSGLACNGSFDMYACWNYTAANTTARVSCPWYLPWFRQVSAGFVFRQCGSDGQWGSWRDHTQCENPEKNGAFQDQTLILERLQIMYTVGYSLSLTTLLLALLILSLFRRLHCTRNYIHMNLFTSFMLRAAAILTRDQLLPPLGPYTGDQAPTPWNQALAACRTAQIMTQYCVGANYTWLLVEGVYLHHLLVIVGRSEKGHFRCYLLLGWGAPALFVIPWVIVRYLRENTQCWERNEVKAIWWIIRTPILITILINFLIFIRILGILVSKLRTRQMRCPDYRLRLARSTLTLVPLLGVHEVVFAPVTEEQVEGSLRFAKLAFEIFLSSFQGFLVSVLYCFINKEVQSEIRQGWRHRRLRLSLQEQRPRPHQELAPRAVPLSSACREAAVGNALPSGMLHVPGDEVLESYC

Mouse GIP receptor [14] = molecular target: T3, Mouse GIP receptor; assay: radioligand binding

With `N=C(N)NCCC[C@H](N)C(=O)O` [arginine] the glucagon secretion (perfused rat pancreas) was “induced secretion of the respective hormones”, the insulin secretion (perfused rat pancreas) was “induced secretion of the respective hormones” and the somatostatin secretion (perfused rat pancreas) was “induced secretion of the respective hormones”. The glucagon secretion [1] was “induced secretion of the respective hormones”, the insulin secretion [1] was “induced secretion of the respective hormones” and the somatostatin secretion [1] was “induced secretion of the respective hormones”.

In the case of “GIP(3–42): naturally occurring GIP metabolite (EGTFISDYSIAMDKIHQQDFVNWLLAQKGKKNDWKHNITQ; Gastric inhibitory polypeptide; UniProt P09681 54-93, looked up, fragment)”, the IC50 (GIP receptor) is given as 22 nM and the “antagonistic effect in vivo” value (pigs) is given as “no antagonistic effect could be demonstrated”.

With Human (Pro3)GIP (peptide) the EC50 of cAMP accumulation in transfected COS-7 cells [2] was 4.7 nM, the EC50 of cAMP accumulation in transfected COS-7 cells [3] was 92 nM and the Emax of cAMP accumulation in transfected COS-7 cells [3] was 71. It also gave a logIC50 [4] of -8 and a logIC50 [5] of -7.4.

In the case of “Mouse (Pro3)GIP (from UniProt P48756 44-85) (peptide)”, the Emax of cAMP accumulation in transfected COS-7 cells [2] is reported as 67, the EC50 of cAMP accumulation in transfected COS-7 cells [3] is reported as 29 nM and the Emax of cAMP accumulation in transfected COS-7 cells [3] is reported as 59. For the same molecule, the EC50 of cAMP accumulation in transfected COS-7 cells (Rat GIP receptor (rat) [6]) was 15 nM, the Emax of cAMP accumulation in transfected COS-7 cells (Rat GIP receptor (rat) [6]) was 61 and the logIC50 [4] was -8.1. For the same molecule, the logIC50 [5] was -8.3 and the logIC50 (Rat GIP receptor (rat) [7]) was -8.1.

Molecule “Rat (Pro3)GIP (from UniProt Q06145 44-85) (peptide)” has an Emax of cAMP accumulation in transfected COS-7 cells [2] of 73, an EC50 of cAMP accumulation in transfected COS-7 cells [3] of 38 nM and an Emax of cAMP accumulation in transfected COS-7 cells [3] of 57. For the same molecule, the EC50 of cAMP accumulation in transfected COS-7 cells (Rat GIP receptor (rat) [6]) was 13 nM, the Emax of cAMP accumulation in transfected COS-7 cells (Rat GIP receptor (rat) [6]) was 64 and the Emax of cAMP accumulation, normalised to rat GIP on the rat receptor (Figure 2B) (Rat GIP receptor (rat) [8]) was 50%. It also gave a logIC50 [5] of -8.1.

Work on YAEGTFISDYSIAMDKIRQQDFVNWLLAQRGKKSDWKHNITQ (ligand) [Mouse GIP (glucose-dependent insulinotropic polypeptide, GIP(1-42))] yielded a Ki (Human GIP receptor [9]) of 2 nM, a logIC50 (Human GIP receptor [9]) of -8.7 and a logIC50 (Rat GIP receptor [10]) of -8.9. The “Emax of cAMP accumulation in transfected COS-7 cells” value (“Emax … in transfected COS-7 cells” below) (Human GIP receptor [11]) was 99, the “Emax … in transfected COS-7 cells” value (Rat GIP receptor [12]) was 120 and the “Emax … in transfected COS-7 cells” value (Mouse GIP receptor [13]) was 156.

For YAEGTFISDYSIAMDKIHQQDFVNWLLAQKGKKNDWKHNITQ (ligand) [Human GIP (glucose-dependent insulinotropic polypeptide, GIP(1-42))], the “Emax … in transfected COS-7 cells” value (Rat GIP receptor [12]) was 100.

For YAEGTFISDYSIAMDKIRQQDFVNWLLAQKGKKNDWKHNLTQ (ligand) [Rat GIP (glucose-dependent insulinotropic polypeptide, GIP(1-42))], the logIC50 (Human GIP receptor [9]) was -8.9, the logIC50 (Mouse GIP receptor [14]) was -9.6 and the “Emax … in transfected COS-7 cells” value (Human GIP receptor [11]) was 113. The “Emax … in transfected COS-7 cells” value (Rat GIP receptor [12]) was 117 and the “Emax … in transfected COS-7 cells” value (Mouse GIP receptor [13]) was 144.
